Experimental data from patent publication US20140045176.

Columns and labels:
Test in all cases: cell_activity
[1] = test system: Z891 L (CCR5 ZFN) (Artificial Sequence); conditions: as ZFN pair; T7E1, sorted RFP+GFP+ HEK293; unsorted 0.8%
[2] = test system: ZFN-224 R (CCR5) (Artificial Sequence); conditions: as ZFN pair; T7E1, sorted RFP+GFP+ HEK293; unsorted 12%
[3] = test system: CMAH-ZFN L (Artificial Sequence); conditions: as ZFN pair; T7E1, hygromycin-selected porcine ear cells; untreated 3.1%
[4] = test system: Thumpd3 ZFN L (Artificial Sequence); conditions: as ZFN pair; T7E1, sorted RFP+GFP+ mouse iPS-derived fibroblasts; unsorted 0.5%
[5] = test system: Thumpd3 ZFN R (Artificial Sequence); conditions: as ZFN pair; T7E1, sorted RFP+GFP+ mouse iPS-derived fibroblasts; unsorted 0.5%
[6] = test system: ZFN-224 L (CCR5) (Artificial Sequence); conditions: as ZFN pair; T7E1, sorted RFP+GFP+ HEK293; unsorted 12%
[7] = test system: CCR5 TALEN R (Artificial Sequence); conditions: as TALEN pair; T7E1, sorted RFP+GFP+ HEK293; unsorted 0.5%; 30 C culture
[8] = test system: CCR5 TALEN L (Artificial Sequence); conditions: as TALEN pair; T7E1, sorted RFP+GFP+ HEK293; unsorted 0.5%; 30 C culture
[9] = test system: Z891 R (CCR5 ZFN) (Artificial Sequence); conditions: as ZFN pair; T7E1, sorted RFP+GFP+ HEK293; unsorted 0.8%
[10] = test system: CMAH-ZFN R (Artificial Sequence); conditions: as ZFN pair; T7E1, hygromycin-selected porcine ear cells; untreated 3.1%

Question: “ATAGATGATGGG (double strand) [Z891_L half-site]” was tested. Which activity [1] did it give?
Answer: 8.7 % mutation

Question: With “AAACTGCAAAAG (double strand) [ZFN-224_R half-site]” as the sequence, how does the activity [2] read?
Answer: 69 % mutation

Question: Which activity [3] does the source give for “AAGCAGGACCGA (double strand) [CMAH-ZFN_L half-site]” here?
Answer: 12.1 % mutation

Question: For “CGAGCACGCCGC (double strand) [Thumpd3_L half-site]”, which activity [4] is on record?
Answer: 46 % mutation

Question: With “GGAGACCGGAAG (double strand) [Thumpd3_R half-site]” as the sequence, how does the activity [5] read?
Answer: 46 % mutation

Question: “GATGAGGATGAC (double strand) [ZFN-224_L half-site]” was tested. Which activity [6] did it give?
Answer: 69 % mutation

Question: How did the activity [7] turn out when “TAGTTTCTGAACTTCTCCCC (double strand) [TALEN_R half-site]” was run?
Answer: 4.3 % mutation

Question: For “TGCATCAACCCCATCATC (double strand) [TALEN_L half-site]”, which activity [8] is on record?
Answer: 4.3 % mutation

Question: For “GTCGGGGAGAAG (double strand) [Z891_R half-site]”, which activity [9] is on record?
Answer: 8.7 % mutation

Question: With “CGAGGATGGTGG (double strand) [CMAH-ZFN_R half-site]” as the sequence, how does the activity [10] read?
Answer: 12.1 % mutation
